For data set [1] the following is noted: cited from earlier work; for half-life in human serum: following subcutaneous administration.
Data set [2] is described as follows: Predicted human plasma concentration profiles of GLP-1 agonists dosed by periodic injection, model fitted to published human pharmacokinetic data. The conditions noted are these: for peak-trough / peak relative to mean: periodic injection dosed according to prescribers' information; for d[drug]/dt: periodic injection, percent of steady state mean concentration per hour. An excerpt: Two compartments (SC and Central) are contemplated. A constant fraction of SC drug enters the Central compartment per unit time (defined by Ka). A constant fraction of Central drug is eliminated per unit time (defined by K). Central drug concentration (equal to plasma drug concentration) is an amount of drug in the Central compartment (A) diluted into its volume of distribution (Vd).
Plasma concentrations are each expressed as a fraction of […] plasma concentration i.e., steady state concentration (Css). The predictions are based upon published human pharmacokinetic data, with either raw plasma concentration data or data digitized from published figures for a single subcutaneous dose. The plasma concentrations were fitted to a model describing “absorption+single component decay” for each agent, as depicted in FIG. 13, based upon a rate constant for absorption from a subcutaneous depot into the plasma, and another rate constant for elimination from the plasma compartment. Data were fit using non-linear regression via an iterative least-squares method within Prism v7.0 (GraphPad Software Inc., San Diego, Calif.).
The derived plasma concentration profile for a single subcutaneous bolus was extended from the time of dosing until plasma concentrations were negligible. This profile was serially added to itself, staggered by a period determined by the indicated dose interval, and in a magnitude determined by the recommended dose increases. The numeric sum is shown as the black line in each plot.
(§1) Rate of change of drug concentration, particularly positive rate of change, d[drug]/dt, was derived as the first differential of the plasma concentration profile summed as described above. The d[drug]/dt was expressed with “d[drug]” units reduced to percent of steady state mean concentration of indicated doses, to enable comparisons between agents with differing potencies and pharmacokinetics. The “dt” units were hours. The X-axes in FIGS. 10 and 12 represent the d[drug]/dt thus obtained, in units of “% of steady-state mean (i.e., Css) per hour”.

The conditions of data set [3]: patients, cited from earlier work.
Data set [4] concerns the target T1, human GLP-1 receptors (Homo sapiens, UniProt P43220).
T1 construct: expressed in transfected cells; host or cells: CHO-K1 (transient transfection, Lipofectamine 2000)
Briefly: Albumin binding assessed by potency shift: cAMP activation of GLP-1 receptors expressed in CHO-K1 cells at different HSA concentrations. The conditions noted are these: potency decreased with increasing albumin concentration; final HSA 0-4%. Format: cell-based. An excerpt:
EC50 values were converted to pEC50 values using the formula: pEC50=−Log(EC50).

The nature of data set [5]: Estimated d[drug]/dt if administered via single subdermal placement of an osmotic drug delivery device. Also on record: species or system human.
From the text: as §1

The mark [6] stands for this setting: periodic injection of aqueous solution.
Setting [7] is: periodic injection (weekly aqueous solution).

Where two headings read alike, the source gives them in different places.

T1 sequence (P43220 24-463): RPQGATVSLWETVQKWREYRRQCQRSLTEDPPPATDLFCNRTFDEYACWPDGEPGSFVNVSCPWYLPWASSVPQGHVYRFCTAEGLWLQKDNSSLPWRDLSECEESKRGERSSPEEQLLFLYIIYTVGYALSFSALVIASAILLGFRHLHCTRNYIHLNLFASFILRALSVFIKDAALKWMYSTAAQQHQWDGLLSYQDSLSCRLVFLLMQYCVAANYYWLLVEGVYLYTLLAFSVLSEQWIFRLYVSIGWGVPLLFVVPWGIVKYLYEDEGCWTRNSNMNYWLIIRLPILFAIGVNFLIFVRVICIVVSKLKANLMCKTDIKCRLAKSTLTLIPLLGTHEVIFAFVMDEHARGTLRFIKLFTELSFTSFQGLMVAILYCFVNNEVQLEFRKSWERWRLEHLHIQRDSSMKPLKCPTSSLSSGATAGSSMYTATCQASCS

For GLP-1, the t1/2 in data set [1] (peptidase prone GLP-1, by contrast to exenatide) is around 3.4 min.
As a reminder, the half-life is the time in which the quantity being followed falls by half. For the substance albiglutide, the peak-trough in data set [2] is reported as 28 % of peak. Moreover, in data set [1] (in humans), the half-life was 140 to 190 h.
As a reminder, the Tmax is the time at which the peak concentration occurs. On to “des-Pro^36-exendin-4(1-39)-Lys6-NH2 [lixisenatide]”, for which, in data set [3] (daily injection, in 24 weeks), the nausea was 26% and the vomiting was 11%. Further, in data set [2], the “peak relative to mean” value is on record as 2.4 × mean, the peak-trough was 97 % of peak and the “d[drug]/dt” value is recorded as 204 % mean/hour. Further, in data set [2] (setting [6]), the Tmax is around 1.7 h and the t1/2 is around 3.0 h. For the same substance, the “half-life in human serum” value in data set [1] was “approximately several hours”. For the same substance, the terminal half-life result in data set [1] (humans, subcutaneous administration) was “approximately 3 h”.
As to dulaglutide, the peak-trough in data set [2] is 63 % of peak.
In the case of semaglutide, in data set [4], the “albumin (HSA) concentration at mid-range of the potency change” value is given as around 0.6%. In addition, in data set [3] (weekly injection), the nausea reported is given as 22% and the withdrawn is given as 6%. The “d[drug]/dt, times lower than d[exenatide]/dt” value in data set [5] is 35 ×. Moreover, in data set [2] (setting [7]), the Tmax was around 76.8 h and the t1/2 was around 199 h. Further, in data set [2], the “peak relative to mean” value is given as 1.12 × mean, the peak-trough is reported as 26 % of peak and the “d[drug]/dt” value is listed as 3.3 % mean/hour. Further, the “half-life in human serum” value in data set [1] is around 165 h.
